Columns and labels:
[1] = target: USP1 (ultraspiracle), endogenous in the larval fat body; assay: Co-IP (anti-IDE antibody) with western blot band quantification; details: fat body of larvae; 10% gel in SDS-PAGE; three replicates; parent: est. 0.49; read off a plot
[2] = target: IGF-2-like, endogenous in the larval fat body; assay: as above; details: fat body of larvae; 10% gel in SDS-PAGE; three replicates; parent: est. 0.18; read off a plot

response [1]: 0.16 USP1/ACTB | response (IGF-2-like/ACTB) [2]: 0.46
Substance: IDE, wild type, endogenous in the larval fat body K179R
